IC50 and EC50 data for seven molecules are collected here from patent publication US20240116985A1 (published 2024).

Assay [1] addresses T1, beta-Catenin (full-length, Uniprot ID P35222) (Homo sapiens (Human), UniProt P35222 1-781).
T1 construct: also called bCat; B-Catenin
T1 sequence: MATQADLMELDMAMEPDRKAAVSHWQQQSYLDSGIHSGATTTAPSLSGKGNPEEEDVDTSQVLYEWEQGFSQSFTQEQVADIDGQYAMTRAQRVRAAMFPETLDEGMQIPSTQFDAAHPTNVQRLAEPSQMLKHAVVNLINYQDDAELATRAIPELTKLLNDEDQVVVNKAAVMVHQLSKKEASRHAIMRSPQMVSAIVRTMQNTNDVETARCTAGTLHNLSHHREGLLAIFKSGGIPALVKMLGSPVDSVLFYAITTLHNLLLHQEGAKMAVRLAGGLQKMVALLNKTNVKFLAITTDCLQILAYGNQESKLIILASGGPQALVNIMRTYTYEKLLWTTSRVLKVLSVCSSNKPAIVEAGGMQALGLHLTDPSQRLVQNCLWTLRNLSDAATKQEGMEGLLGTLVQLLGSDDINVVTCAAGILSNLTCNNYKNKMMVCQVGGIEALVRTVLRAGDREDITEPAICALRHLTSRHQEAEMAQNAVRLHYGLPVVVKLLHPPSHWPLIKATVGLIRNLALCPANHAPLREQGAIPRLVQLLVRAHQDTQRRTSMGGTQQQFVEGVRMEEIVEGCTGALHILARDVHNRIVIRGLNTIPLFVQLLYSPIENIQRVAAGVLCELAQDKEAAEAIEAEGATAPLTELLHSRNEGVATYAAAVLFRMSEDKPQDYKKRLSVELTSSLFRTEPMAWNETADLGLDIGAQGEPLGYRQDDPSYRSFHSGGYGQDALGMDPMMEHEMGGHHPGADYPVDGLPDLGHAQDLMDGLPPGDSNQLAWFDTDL
Kind of assay: fluorescence polarization competition: peptide titrated against 10 nM full-length beta-catenin + 10 nM 5FAM-labeled TCF4 residues 10-53 probe. As for the experimental part:
(§1) The plate was incubated protected from light for 60 minutes at 20° C. prior to read. Reads were performed on a CLARIOstar plate reader (BMG Labtech) in duplicate, and data were fitted to a 1:1 binding model with hill slope using an in-house script. All provided concentrations are final concentrations.

Assay [2] concerns the target T2, full-length beta-Catenin (Uniprot ID P35222) (Homo sapiens (Human), UniProt P35222 2-781).
T2 construct: also called B-Catenin; bCat
T2 sequence: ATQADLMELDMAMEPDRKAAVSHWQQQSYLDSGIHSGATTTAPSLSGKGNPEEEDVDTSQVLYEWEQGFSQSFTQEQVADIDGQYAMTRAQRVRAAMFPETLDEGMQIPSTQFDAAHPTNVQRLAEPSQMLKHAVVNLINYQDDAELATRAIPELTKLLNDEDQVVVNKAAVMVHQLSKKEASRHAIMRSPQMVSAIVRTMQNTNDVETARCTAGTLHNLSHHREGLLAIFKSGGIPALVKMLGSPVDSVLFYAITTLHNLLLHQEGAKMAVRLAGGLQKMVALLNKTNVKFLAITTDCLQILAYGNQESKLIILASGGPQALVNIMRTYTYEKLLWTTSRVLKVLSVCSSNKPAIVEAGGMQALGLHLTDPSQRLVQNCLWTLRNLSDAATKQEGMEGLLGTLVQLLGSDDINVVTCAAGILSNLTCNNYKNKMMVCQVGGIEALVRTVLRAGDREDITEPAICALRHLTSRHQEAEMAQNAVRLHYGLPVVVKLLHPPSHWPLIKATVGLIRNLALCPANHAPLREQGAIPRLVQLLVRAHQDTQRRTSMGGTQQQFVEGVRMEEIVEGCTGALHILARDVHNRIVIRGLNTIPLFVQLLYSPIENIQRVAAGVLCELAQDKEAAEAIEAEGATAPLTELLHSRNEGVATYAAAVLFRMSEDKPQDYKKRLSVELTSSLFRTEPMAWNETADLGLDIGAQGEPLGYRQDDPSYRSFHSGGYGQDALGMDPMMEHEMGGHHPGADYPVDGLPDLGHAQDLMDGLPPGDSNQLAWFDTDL
Briefly: fluorescence polarization competition; 5FAM-TCF4(10-53) probe with full-length beta-catenin. As for the experimental part:
as §1
On the technique in general: Polarisation of emitted light reports the rotation of a fluorescent probe.

For assay [3], the target named is T3, full-length beta-Catenin (Uniprot ID P35222) (Homo sapiens (Human), UniProt P35222 1-781).
T3 construct: also called bCat
T3 sequence: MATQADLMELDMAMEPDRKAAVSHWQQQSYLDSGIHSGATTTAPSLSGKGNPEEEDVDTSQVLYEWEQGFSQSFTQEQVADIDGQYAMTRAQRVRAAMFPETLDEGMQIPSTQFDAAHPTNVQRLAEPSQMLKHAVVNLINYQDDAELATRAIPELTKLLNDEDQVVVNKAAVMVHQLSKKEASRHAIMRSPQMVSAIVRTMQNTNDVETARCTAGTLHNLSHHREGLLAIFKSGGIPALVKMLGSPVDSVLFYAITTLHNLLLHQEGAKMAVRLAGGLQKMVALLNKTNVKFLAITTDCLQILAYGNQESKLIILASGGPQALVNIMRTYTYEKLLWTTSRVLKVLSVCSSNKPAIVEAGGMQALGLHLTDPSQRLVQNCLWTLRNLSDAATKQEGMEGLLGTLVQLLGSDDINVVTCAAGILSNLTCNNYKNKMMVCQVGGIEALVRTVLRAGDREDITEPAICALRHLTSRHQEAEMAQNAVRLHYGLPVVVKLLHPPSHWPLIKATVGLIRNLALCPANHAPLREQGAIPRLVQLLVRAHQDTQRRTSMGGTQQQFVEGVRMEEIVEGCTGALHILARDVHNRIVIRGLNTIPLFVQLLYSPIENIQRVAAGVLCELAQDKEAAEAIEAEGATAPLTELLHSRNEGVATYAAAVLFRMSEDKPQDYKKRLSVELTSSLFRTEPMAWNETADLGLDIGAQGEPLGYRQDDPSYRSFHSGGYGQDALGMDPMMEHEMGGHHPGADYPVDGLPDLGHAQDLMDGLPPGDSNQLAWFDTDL
Briefly: fluorescence polarization competition; full-length beta-catenin; competitor 5FAM-TCF4(10-53) probe. As for the experimental part: as §1

Assay [4] has as its target T2, full-length beta-Catenin (Uniprot ID …). Kind of assay: Alphascreen competition; biotin-TCF4(10-53) probe with full-length beta-catenin. As for the experimental part: Equal volume of the titrated peptide was added to the plate and incubated for 15 minutes at 20° C. Then 4 uL of donor and 4 uL acceptor beads at 10 ug/mL were added to the plate, for a 16 uL reaction pool and protected from light for 60 minutes at 20° C. prior to read. Reads were performed on a CLARIOstar plate reader (BMG Labtech) in duplicate, and data were fitted to a 1:1 binding model with hill slope using an in-house script. All provided concentrations are final concentrations.
A general note: Alpha assays give light when donor and acceptor beads are brought close together.

Starred links: 1 amine or outer side, 2 acyl side, 3 side chain; linkers in the order of their positions; H or OH if unused. Positions of bridges follow the written chain, without caps; N, C: chain ends. Non-standard residues stand in square brackets, D forms with d. Primed or numbered codes have the meaning given here. B5(10) = 2-amino-2-(pent-4-en-1-yl)hept-6-enoic acid, bis(4-pentenyl)glycine, stitching residue bearing both staples, C=CCCCC(CCCC=C)(N[*:1])C(=O)[*:2]; PyrS2(3) = (S)-3-amino-1-((pent-4-en-1-yloxy)carbonyl)pyrrolidine-3-carboxylic acid, stapling residue, C=CCCCOC(=O)N1CC[C@@](N[*:1])(C(=O)[*:2])C1; B5(4) = 2,2-bis(4-pentenyl)glycine = 2-amino-2-(pent-4-en-1-yl)hept-6-enoic acid (stitching residue), C=CCCCC(CCCC=C)(N[*:1])C(=O)[*:2]; B5(28) = 2,2-bis(4-pentenyl)glycine, C=CCCCC(CCCC=C)(N[*:1])C(=O)[*:2]; Phe(3,5-F2) = N[C@@H](Cc1cc(F)cc(F)c1)C(=O)O; Phe(2-Cl) = N[C@@H](Cc1ccccc1Cl)C(=O)O; Phe(3-F) = N[C@@H](Cc1cccc(F)c1)C(=O)O; Bta = N[C@@H](Cc1csc2ccccc12)C(=O)O; αAllylPro = C=CC[C@@]1(C(=O)O)CCCN1; Aad = N[C@@H](CCCC(=O)O)C(=O)O; Cha = N[C@@H](CC1CCCCC1)C(=O)O; S8 = C=CCCCCCC[C@](C)(N)C(=O)O; R5 = C=CCCC[C@@](C)(N)C(=O)O; Aib = CC(C)(N)C(=O)O

B1: I-264: Ac-PL3-Asp-Ala-B5-Asp-Asp-Ala-Ala-3FF-Val-S8-Phe-Trp-Gln-NH2 (peptide)
peptide: Ac-[αAllylPro]DA[B5(4)]DDAA[Phe(3-F)]V[S8]FWQ-NH2
modifications: staple 1-4, 4-11; not fully specified; printed as Ac-PL3-Asp-Ala-B5-Asp-Asp-Ala-Ala-3FF-Val-S8-Phe-Trp-Gln-NH2
notes: It is the earlier-eluting isomer composition
For orientation: IC50 means the concentration at which inhibition is half-maximal. For the molecule B1, the concentration for half-maximal inhibition (IC50) in assay [1] amounted to 5000 nM.

B2: I-254: Ac-PL3-Asp-Ala-B5-Asp-Asp-Ala-Ala-Phe-Val-S8-4F3MeF-Trp-Gln-NH2 (peptide)
peptide: XDAXDDAAFVXFWQ
modifications: not fully specified; N-terminal Ac; PL3 at position 1; B5 at position 4; S8 at position 11; 4F3MeF at position 12; C-terminal NH2; stapled by olefin metathesis (PL3-B5 and B5-S8)
notes: These are separate isomer compositions
Regarding B2, the IC50 in assay [1] is 5000 nM.

B3: I-134 (peptide)
peptide: Ac-[αAllylPro]DA[B5(28)]DEAAFV[S8]FW[Aib]-NH2
modifications: staple 1-4, 4-11
notes: Stitched (two-staple) peptide composition
As usually defined, the EC50 is the concentration needed to bring the measured effect to its halfway point. Lower therefore signals greater potency. The molecule B3 came in with a half-maximal effective concentration (EC50) in assay [2] of 2700 nM. That is a single-digit micromolar value.
In assay [3], Ac-PD[Cha][R5]DDAAFT[PyrS2(3)][Phe(2-Cl)][Bta]S-NH2 (staple 4-11, stapled peptide (single staple)) [I-1184] registered an EC50 of 176 nM.

B4: I-129 (peptide)
peptide: Ac-[αAllylPro]DA[B5(10)]D[Aad]AAFV[S8]FWQ-NH2
modifications: staple 1-4, 4-11
notes: as for B3
In the case of B4, the EC50 in assay [2] came to 1980 nM; in assay [4], 83 nM.
Regarding Ac-[αAllylPro]DA[B5(4)]DDAAFV[S8][Phe(3-F)]WQ-NH2 (staple 1-4, 4-11, Stapled peptide) [I-260: Ac-PL3-Asp-Ala-B5-Asp-Asp-Ala-Ala-Phe-Val-S8-3FF-Trp-Gln-NH2], the IC50 in assay [1] amounted to 5000 nM.
Same read-out and setting: the result for Ac-[αAllylPro]DA[B5(4)]DEAA[Phe(3,5-F2)]V[S8]FWQ-NH2 (staple 1-4, 4-11, Stapled (stitched) peptide) [I-219: Ac-PL3-Asp-Ala-B5-Asp-Glu-Ala-Ala-35FF-Val-S8-Phe-Trp-Gln-NH2] reads 2860 nM.
